Test results from patent US20050215629.

System: synthetic phosphotyrosine peptide Arg-Arg-Leu-Ile-Glu-Asp-Ala-Glu-Tyr-Ala-Ala-Arg-Gly, wherein the tyrosine is phosphorylated

Substance | in vitro PTPase assay | PTPase activity (malachite green, absorbance at 660 nm)
GST fusion protein of SHP-1 catalytic domain (SHP-1cata) | the two proteins in their dephosphorylation of the phosphotyrosine peptide substrate in vitro | 
GST fusion protein of SHP-1 |  | 660 nm absorbance approximately 0.6 above background (0.03)
GST fusion protein of SHP-2 |  | 660 nm absorbance approximately 0.6 above background (0.03)
GST fusion protein of protein tyrosine phosphatase 1B (PTP1B) |  | 660 nm absorbance approximately 0.6 above background (0.03)
GST fusion protein of mitogen-activated protein kinase phosphatase 1 (MKP1) |  | 660 nm absorbance approximately 0.6 above background (0.03)
